Measurements reported in paper doi:10.1101/153403.

Experiments:
[1] = target: mature myostatin growth factor dimer (from HRV-3C cleaved proMSTN-3C) (human) (UniProt O14793); assay: SEC-MALS
[2] = target: myostatin pro-domain of the HRV-3C cleaved pro-myostatin complex (from proMSTN-3C) (human); assay: SEC-MALS

- stoichiometry N [1]: 2
- stoichiometry N (pro-domains per mature GF dimer) [2]: 2
Substance: mature myostatin growth factor dimer (from HRV-3C cleaved proMSTN-3C) (from UniProt O14793 267-375) (ligand)
